Consider 72 sequences from the supplement of paper PMC10567573.

± gives the standard deviation.

The nature of this data set: protein stability index of a GFP-peptide fusion (GPS, HEK-293T) (PSI 1-6); higher = more stable.
[1] abbreviates: treatment: DMSO, c terminus: a fixed tail appended.
[2] abbreviates: treatment: MLN4924 1 uM, 8 h, c terminus: a fixed tail appended.
[3] abbreviates: treatment: DMSO, c terminus: native.
Setting [4] is: treatment: MLN4924 1 uM, 8 h, c terminus: native.
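Also: 24-mer peptide tiles fused after GFP, lentivirally expressed, FACS-sorted into six equal bins by GFP/DsRed ratio, decoded by Illumina sequencing, PSI is the read-weighted mean bin number.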

KIMIIICCVILGIVIASTVGGIFA [STX1A]: the protein stability index under setting [1] is 2.04 ± 0.38 and the protein stability index under setting [2] was found to be 2.23 ± 0.41.

Consider QNPTASYYNVVLLRYQFSRPGPQS [FCHO1], for which the protein stability index came out at 2.44 ± 0.46 under setting [1] and 2.41 ± 0.27 under setting [2].

Turning to HTGERPYECTVCKKRFTRRSHLIG [ZNF449], the protein stability index was 2.67 ± 0.36 under setting [1] and 3.17 ± 0.88 under setting [2].

CPGKGAWSIPWKWLFGATAVALGG [FKBP8] returned a protein stability index under setting [1] of 2.42 ± 0.3 and a protein stability index under setting [2] of 2.37 ± 0.25.

Take GERVVINISGLRFETQLKTLCQFP [KCNA3]: the protein stability index runs as follows: under setting [1], 2.61 ± 0.45; under setting [2], 2.19 ± 0.083.

Regarding SASECMQDFNTMFTNCYIYNKPTD [BRD3], the protein stability index was found to be 3.1 ± 0.23 under setting [1] and 3.08 ± 0.45 under setting [2].

Take DDFFRHESGEHFRSLLGYDPQILQ [RAD54B]: the protein stability index under setting [1] turned out to be 3.44 ± 0.22 and the protein stability index under setting [2] was 3.29 ± 0.26.

Consider SSAPRDVQARMLSSTTILVQWKEP [PTPRD], for which the protein stability index is, setting by setting: under setting [1], 2.83 ± 0.47; under setting [2], 2.79 ± 0.15.

Regarding RASALCDRHTKFFEEPEDPSNRSF [PPP2R2B], the protein stability index under setting [1] came to 4.38 ± 0.19 and the protein stability index under setting [2] stood at 4.49 ± 0.25.

Turning to EPEAASSRGSPVRVKREFEPASAR [USP39], the protein stability index by setting is: under setting [1], 5.04 ± 0.16; under setting [2], 5.11 ± 0.16.

The sequence QLDIEEEGRPGAATFHVGGGPAQN [TFE3] gave a protein stability index under setting [1] of 5.26 ± 0.31 and a protein stability index under setting [2] of 5.16 ± 0.32.

As for DITEGDRKPDYTAYVAMIPQCIKE [ATF4], the protein stability index is, setting by setting: under setting [1], 3.28 ± 0.27; under setting [2], 3.38 ± 0.37.

Take RLAQGNPQQGFFSSFFTCNQKCQL [ATP23]: the protein stability index under setting [1] worked out at 2.49 ± 0.45 and the protein stability index under setting [2] came to 2.53 ± 0.23.

Sequence EDSSLPSINALLQAEVLSRQITSP [HNF4A] yielded a protein stability index under setting [1] of 4.25 ± 0.16 and a protein stability index under setting [2] of 4.27 ± 0.093.

SSIECYDPIIDSWEVVTSMGTQRC [KLHL12]: the protein stability index under setting [1] worked out at 2.95 ± 0.2 and the protein stability index under setting [2] was 3.24 ± 0.49.

In turn, EEEAGQTSIEPSKSSIIPFRALKR [ZER1] had a protein stability index under setting [1] of 4.87 ± 0.26 and a protein stability index under setting [2] of 5.09 ± 0.16.

Turning to SLPSPSSSGHQNRRFSSEDLEDPL [FBF1], the protein stability index came out at 5.45 ± 0.3 under setting [1] and 5.46 ± 0.29 under setting [2].

With TTSDIPHMLNQVESKVKDILSKVQ [FAM98B], the protein stability index is 2.48 ± 0.38 under setting [1] and 2.32 ± 0.32 under setting [2].

Take SDRRKEKDPKAGDSKSGGSGSESD [DVL3]: the protein stability index stood at 5.69 ± 0.32 under setting [1] and 5.55 ± 0.15 under setting [2].

Take AVMEFHVSEDFNKMNFIKTYPAHQ [WDFY1]: the protein stability index under setting [1] is 1.99 ± 0.32 and the protein stability index under setting [2] was 1.93 ± 0.28.

Take SGSRPRKPPPRKHTRSWAVLKLLL [LRRC59]: the protein stability index runs as follows: under setting [1], 2.39 ± 0.37; under setting [2], 2.31 ± 0.28.

Consider EMPYNIWCDGCKNHIGMGVRYNAE [YJU2B], for which the protein stability index runs as follows: under setting [1], 2.27 ± 0.32; under setting [2], 2.49 ± 0.25.

LEELTKLQNNCTSSITRQKKRLQE [TMEM120A] gave a protein stability index under setting [1] of 4.81 ± 0.3 and a protein stability index under setting [2] of 4.76 ± 0.31.

On to EERILHQQVKCIITEEKVCMVCKK [VPS39], for which the protein stability index turned out to be 4.21 ± 0.33 under setting [1] and 4.39 ± 0.29 under setting [2].

Turning to TTVPDGPTQLRALNLTEGFAVLHW [TNXB], the protein stability index was found to be 2.18 ± 0.098 under setting [1] and 2.05 ± 0.065 under setting [2].

For the sequence KKCCIPETRRRMEMAFNTRCKEEN [NLN], the protein stability index stood at 3.57 ± 0.25 under setting [1] and 3.75 ± 0.22 under setting [2].

As to PNIQEAVEGAMHIQECVPEDLELK [CRYL1], the protein stability index is, setting by setting: under setting [1], 5.49 ± 0.13; under setting [2], 5.57 ± 0.19.

As for KPTRRDASPESPSKKGPIPIRRH [GNAS], the protein stability index reads like this: under setting [3], 4.71 ± 0.19; under setting [4], 5.21 ± 0.49.

As for LAVFARCLAGCEGAHEQVDFKDFY [P3H4], the protein stability index reads like this: under setting [1], 1.94 ± 0.45; under setting [2], 2.02 ± 0.31.

NLAAMTPHDFIEHFLSKMPEAEEN [CCND1] showed a protein stability index under setting [1] of 4.49 ± 0.075 and a protein stability index under setting [2] of 4.49 ± 0.04.

Take MRAPMLQKQQAPRMDTPPPEERLE [CCDC89]: the protein stability index runs as follows: under setting [1], 5.21 ± 0.24; under setting [2], 5.29 ± 0.29.

MQVHKETIDAVPNAIPGRTDIELE [ZNF207]: the protein stability index came out at 4.97 ± 0.15 under setting [1] and 5.17 ± 0.18 under setting [2].

QLRATAGSLILPPGPGGTMKRHSS [FCHO1]: the protein stability index is, setting by setting: under setting [1], 3.87 ± 0.16; under setting [2], 3.91 ± 0.33.

For SISDLSEHVFDLILELYNIDSHLL [PDS5B], the protein stability index by setting is: under setting [1], 2.49 ± 0.89; under setting [2], 2.25 ± 0.81.

On to CKNGETLLGAVNFFVSSINTLVTK [ARFIP2], for which the protein stability index was determined as 2.72 ± 0.75 under setting [1] and 2.64 ± 0.88 under setting [2].

Take RKLQKEQQRSKDLESRQRSLEQAN [TFE3]: the protein stability index under setting [1] turned out to be 5.09 ± 0.3 and the protein stability index under setting [2] is 5.11 ± 0.27.

With KAAEGGLSSPEFSELCIWLGSQIK [FAM98B], the protein stability index reads like this: under setting [1], 2.08 ± 0.12; under setting [2], 2.03 ± 0.4.

Regarding KKREFRFHPIKETVVEEPVDITPY [INTS3], the protein stability index by setting is: under setting [1], 2.83 ± 0.51; under setting [2], 3.59 ± 0.68.

For the sequence AVEGAARTTPSRREITGVQAQPGE [PALM], the protein stability index worked out at 5.22 ± 0.36 under setting [1] and 5.31 ± 0.28 under setting [2].

As for VRTLSEPPDKGEEQVNFCESSNDF [ZBTB22], the protein stability index runs as follows: under setting [1], 5.14 ± 0.25; under setting [2], 5.26 ± 0.39.

The sequence QLYTAYILENRPPGSLLCTVAASD [PCDHGC5] came in with a protein stability index under setting [1] of 2.11 ± 0.24 and a protein stability index under setting [2] of 2.18 ± 0.26.

Take YNISEFTRRHPGGSRVISHYAGQD [FADS1]: the protein stability index runs as follows: under setting [1], 3.54 ± 0.15; under setting [2], 3.42 ± 0.26.

As to DRDAEDQNRYLDGMVRAHGVRVSV [BET1L], the protein stability index was 3.85 ± 0.22 under setting [1] and 3.87 ± 0.29 under setting [2].

DRNVVTIFSAPNYCYRCGNQAAIM [PPP2CA]: the protein stability index amounted to 2.7 ± 0.79 under setting [1] and 2.11 ± 0.23 under setting [2].

In the case of IENRDVAKSVLKERGLKKIRLGIE [BTBD10], the protein stability index is, setting by setting: under setting [1], 3.36 ± 0.28; under setting [2], 3.32 ± 0.13.

Take PGIDRPGMLCSFRIPGAWSCAWSL [DCAF4]: the protein stability index reads like this: under setting [1], 3.32 ± 0.45; under setting [2], 2.96 ± 0.61.

REGDCAPEEKIWEELSVLEVFEGR [MAGEA3]: the protein stability index is, setting by setting: under setting [1], 5.08 ± 0.22; under setting [2], 5.14 ± 0.11.

In the case of YLNEYEAEKIEYNESMKAYHNSPA [SMARCE1], the protein stability index runs as follows: under setting [1], 3.95 ± 0.4; under setting [2], 3.98 ± 0.31.

On to FSEEDEEETTSQDWGTPRELTFSY [RTN2], for which the protein stability index by setting is: under setting [1], 4.22 ± 0.15; under setting [2], 4.22 ± 0.49.

As to LFGGFADFGSAAASGSFPSQVTAT [CLINT1], the protein stability index turned out to be 2.71 ± 0.37 under setting [1] and 3.02 ± 0.33 under setting [2].

Take VASGYHYGVASCEACKAFFKRTIQ [ESRRA]: the protein stability index under setting [1] came out at 2.29 ± 0.27 and the protein stability index under setting [2] was determined as 2.47 ± 0.48.

On to KENIEKDEDDVDQELANIDPTWIE [SRPK2], for which the protein stability index runs as follows: under setting [1], 5.56 ± 0.28; under setting [2], 5.53 ± 0.2.

Consider GGPAGQAGRGGAAGTAGVGETGSG [MYOZ1], for which the protein stability index came out at 5.42 ± 0.21 under setting [1] and 5.34 ± 0.32 under setting [2].

Take ACGDFFTACLTDRGIIMTFGSGSN [NEK8]: the protein stability index reads like this: under setting [1], 2.66 ± 0.83; under setting [2], 2.78 ± 0.64.

As to RADCASESACSSDSLDEARSSGSE [PWWP2B], the protein stability index reads like this: under setting [1], 5.42 ± 0.3; under setting [2], 5.53 ± 0.26.

TLLLELEQDSGVQVEGLTVQYLGQ [ADAMTS4]: the protein stability index was determined as 2.87 ± 0.72 under setting [1] and 3.23 ± 0.38 under setting [2].

As for FSIDEELVYENFYADFGPLNLAMV [CDC14A], the protein stability index worked out at 2.75 ± 0.6 under setting [1] and 2.43 ± 0.6 under setting [2].

On to PAPKRGYSSEMKTEDELRVRHLEE [AUH], for which the protein stability index was determined as 5.15 ± 0.48 under setting [1] and 4.75 ± 0.87 under setting [2].

Take LKLANHQRPVSRQVTCLRTQVLED [TRAF3IP2]: the protein stability index reads like this: under setting [1], 3.49 ± 0.35; under setting [2], 3.58 ± 0.27.

For the sequence QCMQPNNIMGIENICELAARMLFS [NR2F2], the protein stability index runs as follows: under setting [1], 2.45 ± 0.68; under setting [2], 2.49 ± 0.36.

KVLLSGATFLVTFGNSEKPETMTC [ZFYVE21]: the protein stability index is 2.43 ± 0.27 under setting [1] and 2.23 ± 0.72 under setting [2].

Sequence PESVERLTGVSISQVNHKPLRTA [FLOT1] had a protein stability index under setting [3] of 2.66 ± 0.69 and a protein stability index under setting [4] of 3.11 ± 0.18.

AGSTDDRIVVPQRGRSTRVPVASV [SPNS1]: the protein stability index turned out to be 4.22 ± 0.077 under setting [1] and 4.39 ± 0.45 under setting [2].

Take LSMLLTLKCEMNQMSGEPLDKLNF [ACSBG2]: the protein stability index is 2.83 ± 0.46 under setting [1] and 2.29 ± 0.16 under setting [2].

The sequence EGIKVEDLLFIVDTMLEEVENKEK [CEP70] gave a protein stability index under setting [1] of 3.07 ± 0.27 and a protein stability index under setting [2] of 3.03 ± 0.42.

Take VGSDPLIKSDEECRDLVDEAKNYL [KLHL20]: the protein stability index by setting is: under setting [1], 5.2 ± 0.11; under setting [2], 5.09 ± 0.28.

On to TPLQSRTSIVQAAAGGVPGGGSNN [PDLIM7], for which the protein stability index by setting is: under setting [1], 4.71 ± 0.2; under setting [2], 5.03 ± 0.24.

Regarding LPLALYTATFAVHFMVLSKSGPGD [POMT2], the protein stability index reads like this: under setting [1], 3.34 ± 0.33; under setting [2], 3.01 ± 0.61.

For the sequence GESDNPLRFTSGLVVALDVDATLE [INTS4], the protein stability index reads like this: under setting [1], 3.23 ± 0.37; under setting [2], 3.54 ± 0.15.

Regarding VSSAVSPSIIPQEDPSQQFLQQSL [INTS4], the protein stability index reads like this: under setting [1], 4.2 ± 0.24; under setting [2], 4.41 ± 0.083.

For AEDHLDGCCKRRYLQKIEEFAEMV [KCNG1], the protein stability index is 3.06 ± 0.14 under setting [1] and 2.96 ± 0.1 under setting [2].

AFKAAALIQRWYRRYVARLEMRRR [PPEF2] registered a protein stability index under setting [1] of 3.55 ± 0.57 and a protein stability index under setting [2] of 4.15 ± 0.59.
